assay: soluble on expression in E. coli; label from the status in PepcDB or PDB records

Row | Sequence | soluble on expression in E. coli
1 | MGHHHHHHSHMANSAGSMANSAGSMPPLSTIDPSGTRSKNMPIKDNALVMFNGKVYLLAKKGTDVLPSQIDQQNSVSPDTPVRKDTLQTVSSSPVTEISREVVNIVLAKSKSSQMETKSLSNTQLASMANLRAEKNKVEKPSPSTTNPHMNQSSNYLKQSKTLFTNPIFPVGFSTGHNAPRKVTAVIYARKGSVLQSIEKISSSVDATTVTSQQCVFRDQEPKIHNEMASTSDKGAQGRNDKKDSQGRSNKALHLKSDAEFKKIFGLTKDLRVCLTRIPDHLTSGEGFDSFSSLVKSGTYKETEFMVKEGERKQQNFDKKRKAKTNKKMDHIKKRKTENAYNAIINGEANVTGSQLQYFTNFRCVTT | not soluble
2 | MQHEEGNRQRPQGELLLRTVAMPRDTNPNQDIFGGWIMSQMDLGGGILAAEIARGRIVTVAVQEMNFIRPVKVGNVVCCYGHCVRVGNTSLQLKVEVWVKTLMNDCVTEDRHLVTEAVFTYVAIDAEGNPRPIPKEGNPILAGLLPTPLEHHHHHH | soluble
3 | MGSDKIHHHHHHMKNPNTVISSDYGPIIINLNDNAIGRQISQYGYWATDDINIINTLVNVQLDKFGQIMFYDVGANIGTHSLAIAKTHPDTVAIRAFEAQRQVFNMLCGTMAINGLSNVHCHHNAISEKIGDFIDIPIPDYNSANNFGSLELIPPKNSDNQGIIHSGKMESVKTLSIDSFNEKVDFIKMDIEGMEDKALLGAINTIEHHRPILFLEILKTDVNFVMTFLRERGYLGFQKSFDLIAIPIEYQLQVNGTNRVF | not soluble
4 | MPGNHSEISLNEQNRVDDNDTKTKTTTRKKKKKKDVTIVDDDDNQFDTTNQLVKSKNRFLGKFRKKPKSPKRWSGSRKGGCFRVMRPRRREGGDDDSSVSSPVSDPNDERFSHEMLRVMLETNDFCSDECNPHR | soluble
5 | MKRVRKAIIPAAGLGTRFLPATKAMPKEMLPIVDKPTIQYIVEEAVKSGIEDIIIVTGKTKRSIEDHFDNAFELEQNLLEKKKYELLEKVQASSKMVDIHYIRQKEPKGLGHAVWCARKFIGDEPFAVLLGDDIVQAEKPCLRQLIEEYDKTLSSVIGVQTVPEDETHRYGIIDPLEQEGRRYQVRNFVEKPAAGTAPSNLAIMGRYVLTPEIFMFLEQQHVGAGGEIQLTDAIQSLNEIQRVFAYDFEGKRYDVGEKLGFVQTTIEMALQHPELRDDMVTMMKKILEEQTNQES | not soluble
6 | MGSDKIHHHHHHMSQHRDAAFLTAKSWQDLPASVPFRLCCIERIDETHDVVTFRFEAAGEPVRFSYKPGQFITLLLEIGGEPHSRAYTLSSSPSRPYSISITVKRVEGGKVSNYLIDNLRPGHALDAMGPSGSFNLVDIPADRYLFLSAGCGITPMFSMSRWLTDTRVGADITFVHSARSVDDLIFAPKLESMANNHSGFRLGYVIEQGNCPDWPYAPVLPGRLTLSGLDSLVSDWRERTLYVCGPEAYMAAVEAMVRDAGFAMSRFHKESFGKPGAPVKSSGQGFMLKVGDKLHPLGESGLLLEGIEALKLPIIAACRSGVCGACKCQVLEGDVERLSEMTLTEEDKANGMVLACSARALSNISLKL | not soluble
7 | MPPGKKGQASSLGQNKVHFHKYNLILLPPDTISSHSSEERGLLWKHRLSQARTSYSSHVRILVRIRKMWEKTPHMRIGNIFFKKREL | not soluble
8 | KIIVKHVTVIGGGLMGAGIAQVAAATGHTVVLVDQTEDILAKSKKGIEESLRKVAKKKFAENPKAGDEFVAKTLSTIATSTDAASVVHSTDLVVEAIVENLKVKNELFKRLDKRAAEHTIFASNTSSLQITSIANATTRQDRFAGLHFFNPVPVMKLVEVIKTPMTSQKTFESLVDFSKALGKHPVSCKDTPGFIVNRLLVPYLMEAIRLYERGDASKEDIDTAMKLGAGYPMGPFELLDYVGLDTTKFIVDGWHEMDAENPLHQPSPSLNKLVAENKFGKKTGEGFYKYKAA | soluble
9 | FTGFFIGPMAEVTIPLVGLGVDGALLFAQRGVKVGDESIRQNGLDIPINLKYTIGLGSALGIYVAAGPDFYFNFSGDKNYGELGRLNKKNAQVGINVGAGVKLLRHLQVGANYNIPLNKTAEWKEADFSYKTKMWQISAAYIF | not soluble
10 | MSWDLSTAKPPVVVDTTLRDGSHAHRHQYTVEEARAIAQALDEAGVYAIEVSHGDGLGGSSLQYGFSRTDEMELIRAVRETVRRAKVAALLLPGIGTRKELKEAVEAGIQMVRIATQCTEADISEQHFGMAKEMGLEAVGFLMMSHMRPPEFLAEQARLMEGYGADVVYIVDSAGAMLPEDAYARVKALKEALSRAKVGFHAHNNLGLAIGNTLAALAAGADWVDATLRGYGAGAGNAPLEVLAAVLDKAGLNPGLDVFKLLDAAEYVMGPILHFQPYPDRDSVAIGYAGVYSTFLLHAKRIGKELGVDPLAILLELGRRQAVAGQEDWILRVALELKEKEAGALAD | soluble
11 | MGSDKIHHHHHHMLIQIADLFTPAEAAQIRARLEAADWVDGKVTAGYQSAQVKHNRQLSEQHPLAQELGGLILQRLAANNLFMSAALPRKIFPPLFNRYEGGEAFGYHVDNALRPVPGTAERVRTDLSATLFFSEPDSYDGGELVVDDTYGPRTVKLPAGHMVLYPGTSLHKVTPVTRGARISAFFWLQSLVREDSQRSLLLEMDVAIQRLNQDTPGHASIVQLTGVYHNLLRRWTDV | not soluble
12 | GAVFEFDNLAPMLATHGTVAGLKASQWAFEGKWDGYRLLVEADHGAVRLRSRSGRDVTAEYPQLRALAEDLADHHVVLDGEAVVLDSSGVPSFSQMQNRGRDTRVEFWAFDLLYLDGRALLGTRYQDRRKLLETLANATSLTVPELLPGDGAQAFACSRKHGWEGVIAKRRDSRYQPGRRCASWVKDKHWNTQEVVIGGWRAGEGGRSSGVGSLLMGIPGPGGLQFAGRVGTGLSERELANLKEMLAPLHTDESPFDVPLPARDAKGITYVKPALVAEVRYSEWTPEGRLRQSSWRGLRPDKKPSEVVRE | soluble
13 | DVKIEKLKDNLYVYTTYNTFNGTKYAANAVYLVTDKGVVVIDCPWGEDKFKSFTDEIYKKHGKKVIMNIATHSHDDRAGGLEYFGKIGAKTYSTKMTDSILAKENKPRAQYTFDNNKSFKVGKSEFQVYYPGKGHTADNVVVWFPKEKVLVGGCIIKSADSKDLGYIGEAYVNDWTQSVHNIQQKFSGAQYVVAGHDDWKDQRSIQHTLDLINEYQQKQKASN | soluble
14 | MSLGNPAAMLAAYNTSTQVAPQPQLGPRAGEVQLSSEQQAMIDYVLAGKDVIVDATVGSGKTTAIQRLCSIMGADHDVLYLTYSKLLKVDAQQRVRGAKVQNYHGIVYPHLLKAGIKCGISESIREFNKNFKHISRTFPSYDLLVIDEYQDINEDYAELLRNIKSVNPLMQIVMVGDLEQKVRSDTTLDPQEFAAQLCEDPVFAPFTQSFRIGEAMAAGLADAWNKPIVGANTAQQIEYRSFAEAVVLIQSTEPSKLLCLGSRNGQMSDALNVVERKSPAKFNKKTVFASIRDGDSQIAHPNDAAVFTTFDSSKGLERDTCVVFDYDEEFWDMRLGYPNVDPVVMRNVFLVAASRGKNKVVFVRSDSLQAAYEAGADWAAGLAVGVVDNNTEVAPEVDAHTPAEESKGDVGEVQSQIERMMGFIPVSVFKELPELAPSEYARPISVTEAFDFKYAENVEACFDLLDVKRLDNGKGAAIEVNRSDGLIDLSPTVGNFQEAVFFKDYNVHTALSAYPSQFAKNLKRLVKKNNSVWRNCLIVTAASTEQMRYVDQVRSSIPVAAEKALVSRLSTRLNADSRNQIPLILDGEAVQSKVVRTPMSFAGVADAVHKGVLYELKFVSELTHPMFLQLAMYLVMSGMKDGILWNTRTDEAWQVRVPDPKRFLNAVVLCVSKQDYRVGNFDLPSTGGEGHHHHHH | soluble
15 | MGHHHHHHSHMQPAKEVTKASDGSLLGDLGHTPLSKKEGIKWQRPRLSRQALMRCCLVKWILSSTAPQGSDSSDSELELSTVRHQPEGLDQLQAQTKFTKKELQSLYRGFKNECPTGLVDEDTFKLIYAQFFPQGDATTYAHFLFNAFDADGNGAIHFEDFVVGLSILLRGTVHEKLKWAFNLYDINKDGYITKEEMLAIMKSIYDMMGRHTYPILREDAPAEHVERFFEKMDRNQDGVVTIEEFLEACQKDENIMSSMQLFENVI | not soluble

Reference: the DeepSol protein solubility set
